Test results taken from PMC11218506, “Characterization of the dual regulation by a c-di-GMP riboswitch Bc1 with a long expression platform from Bacillus thuringiensis”.

Legend:
[1] = molecular target: T1, Zur (Bacillus thuringiensis BMB171, UniProt A0A0G3E7H1 1-137); experiment: EMSA; 100 uM MnCl2 (Mn2+ addition did not affect the interaction); 50 mM Tris-HCl pH 7.5, 10 mM MgCl2, 1 mM DTT, 100 mM NaCl, 100 uM MnCl2; 25 C, 30 min; 6% native PAGE in 0.5x TBE; DNA stated as 50 uM; settings: protein: recombinant; tags: C-terminal 6xHis (pET28b); chain copies: 2; label: none (YeaRed gel stain); blunt
[2] = molecular target: T1, Zur; experiment: EMSA; 100 uM MnCl2 per Methods; 50 mM Tris-HCl pH 7.5, 10 mM MgCl2, 1 mM DTT, 100 mM NaCl, 100 uM MnCl2; 25 C, 30 min; 6% native PAGE in 0.5x TBE; DNA stated as 50 uM; settings: protein: recombinant; tags: C-terminal 6xHis (pET28b); chain copies: 2; label: none (YeaRed gel stain); blunt

B1: Bc1 dual terminator coding sequence (dsDNA)
DNA 1: CCAATGCTTTTACATTGGCTTTTTTTTATTCTCGAACATATTGAGAAACATTTTCAAAC
DNA 2: GTTTGAAAATGTTTCTCAATATGTTCGAGAATAAAAAAAAGCCAATGTAAAAGCATTGG
B1: binds [1].

B2: mutant Bc1 dual terminator coding sequence (dsDNA)
DNA 1: CCAATGCTTTTACATTGGCTTTTTTTTATTCTCGAACATGCCACACCCATAAGCAGCCT
DNA 2: AGGCTGCTTATGGGTGTGGCATGTTCGAGAATAAAAAAAAGCCAATGTAAAAGCATTGG
B2: no binding [2].

B3: ck+ (dhbA positive control) (dsDNA)
DNA 1: TTATTTTTATAATTGATAATGATAATCATTATCAATAGATTGCGTTTTTC
DNA 2: GAAAAACGCAATCTATTGATAATGATTATCATTATCAATTATAAAAATAA
B3: binds [2].
